Measured values: the Human Domainome abundance scans (Beltran et al. 2025)
± gives the uncertainty stated by the source.

B1: Metastasis-associated protein MTA3, residues 265 to 317; numbered along this chain, Q9BTC8 (parent)
chain: RDEMEEWSASEASLFEEALEKYGKDFNDIRQDFLPWKSLTSIIEYYYMWKTTD
B2: Ras GTPase-activating protein 1, residues 281 to 341; numbered along this chain, P20936 (parent)
chain: RRRVRAILPYTKVPDTDEISFLKGDMFIVHNELEDGWMWVTNLRTDEQGLIVEDLVEEVGR

Variants of: B1
Assay: abundance fitness (aPCA) (normalised: wild type 0, dead -1); higher = more abundant; growth selection in yeast, the domain comes from the species named
Settings: Homo sapiens

Variant	abundance fitness
NDEMEEWSASEASLFEEALEKYGKDFNDIRQDFLPWKSLTSIIEYYYMWKTTD [R1N]	0.378 ± 0.14
FDEMEEWSASEASLFEEALEKYGKDFNDIRQDFLPWKSLTSIIEYYYMWKTTD [R1F]	0.372 ± 0.15
SDEMEEWSASEASLFEEALEKYGKDFNDIRQDFLPWKSLTSIIEYYYMWKTTD [R1S]	-0.259 ± 0.2
MDEMEEWSASEASLFEEALEKYGKDFNDIRQDFLPWKSLTSIIEYYYMWKTTD [R1M]	0.11 ± 0.23
GDEMEEWSASEASLFEEALEKYGKDFNDIRQDFLPWKSLTSIIEYYYMWKTTD [R1G]	0.335 ± 0.17
CDEMEEWSASEASLFEEALEKYGKDFNDIRQDFLPWKSLTSIIEYYYMWKTTD [R1C]	0.057 ± 0.077
VDEMEEWSASEASLFEEALEKYGKDFNDIRQDFLPWKSLTSIIEYYYMWKTTD [R1V]	0.231 ± 0.4
KDEMEEWSASEASLFEEALEKYGKDFNDIRQDFLPWKSLTSIIEYYYMWKTTD [R1K]	0.028 ± 0.26
ADEMEEWSASEASLFEEALEKYGKDFNDIRQDFLPWKSLTSIIEYYYMWKTTD [R1A]	0.304 ± 0.35
IDEMEEWSASEASLFEEALEKYGKDFNDIRQDFLPWKSLTSIIEYYYMWKTTD [R1I]	0.025 ± 0.23
PDEMEEWSASEASLFEEALEKYGKDFNDIRQDFLPWKSLTSIIEYYYMWKTTD [R1P]	-0.529 ± 0.34
LDEMEEWSASEASLFEEALEKYGKDFNDIRQDFLPWKSLTSIIEYYYMWKTTD [R1L]	-0.098 ± 0.11
WDEMEEWSASEASLFEEALEKYGKDFNDIRQDFLPWKSLTSIIEYYYMWKTTD [R1W]	-0.044 ± 0.26
TDEMEEWSASEASLFEEALEKYGKDFNDIRQDFLPWKSLTSIIEYYYMWKTTD [R1T]	0.299 ± 0.16
RSEMEEWSASEASLFEEALEKYGKDFNDIRQDFLPWKSLTSIIEYYYMWKTTD [D2S]	-0.249 ± 0.23
RMEMEEWSASEASLFEEALEKYGKDFNDIRQDFLPWKSLTSIIEYYYMWKTTD [D2M]	0.033 ± 0.22
RAEMEEWSASEASLFEEALEKYGKDFNDIRQDFLPWKSLTSIIEYYYMWKTTD [D2A]	0.033 ± 0.15
RWEMEEWSASEASLFEEALEKYGKDFNDIRQDFLPWKSLTSIIEYYYMWKTTD [D2W]	-0.323 ± 0.28
RREMEEWSASEASLFEEALEKYGKDFNDIRQDFLPWKSLTSIIEYYYMWKTTD [D2R]	-0.285 ± 0.15
RKEMEEWSASEASLFEEALEKYGKDFNDIRQDFLPWKSLTSIIEYYYMWKTTD [D2K]	0.523 ± 0.093
RTEMEEWSASEASLFEEALEKYGKDFNDIRQDFLPWKSLTSIIEYYYMWKTTD [D2T]	0.271 ± 0.17
RNEMEEWSASEASLFEEALEKYGKDFNDIRQDFLPWKSLTSIIEYYYMWKTTD [D2N]	0.058 ± 0.23
REEMEEWSASEASLFEEALEKYGKDFNDIRQDFLPWKSLTSIIEYYYMWKTTD [D2E]	0.199 ± 0.076
RPEMEEWSASEASLFEEALEKYGKDFNDIRQDFLPWKSLTSIIEYYYMWKTTD [D2P]	-0.617 ± 0.49
RFEMEEWSASEASLFEEALEKYGKDFNDIRQDFLPWKSLTSIIEYYYMWKTTD [D2F]	-0.133 ± 0.47
RGEMEEWSASEASLFEEALEKYGKDFNDIRQDFLPWKSLTSIIEYYYMWKTTD [D2G]	0.204 ± 0.084
RHEMEEWSASEASLFEEALEKYGKDFNDIRQDFLPWKSLTSIIEYYYMWKTTD [D2H]	-0.296 ± 0.072
RDAMEEWSASEASLFEEALEKYGKDFNDIRQDFLPWKSLTSIIEYYYMWKTTD [E3A]	-0.342 ± 0.14

Variants of: B2
Assay: as above
Settings: Homo sapiens

Variant	abundance fitness
RRRVRAILPYTKVPDTDEISFLKGDMFIVHNILEDGWMWVTNLRTDEQGLIVEDLVEEVGR [E32I]	0.031 ± 0.03
RRRVRAILPYTKVPDTDEISFLKGDMFIVHNMLEDGWMWVTNLRTDEQGLIVEDLVEEVGR [E32M]	0.017 ± 0.053
RRRVRAILPYTKVPDTDEISFLKGDMFIVHAELEDGWMWVTNLRTDEQGLIVEDLVEEVGR [N31A]	-0.036 ± 0.032
RRRVRAILPYTKVPDTDEISFLKGDMFIVHDELEDGWMWVTNLRTDEQGLIVEDLVEEVGR [N31D]	0.046 ± 0.033
RRRVRAILPYTKVPDTDEISFLKGDMFTVHNELEDGWMWVTNLRTDEQGLIVEDLVEEVGR [I28T]	-0.011 ± 0.023
RRRVRAILPYTKVPDTDEISFLKGDMFIVHNELEDGWMWVTNLRTDEQGLIVEDVVEEVGR [L55V]	-0.175 ± 0.029
RRRVRAILPYTKVPDTDEISFLKGDMFIVHNELEDGWMWVTNLRTDEQGLIVEDSVEEVGR [L55S]	-0.018 ± 0.026
RRRVRAILPYTKVPDTDEISFLKGDMFIVHNELEDGWMWVTNLRTDEQGLIVEDFVEEVGR [L55F]	0.015 ± 0.03
RRRVRAILPYTKVPDTDEISFLKGDMFIWHNELEDGWMWVTNLRTDEQGLIVEDLVEEVGR [V29W]	-0.951 ± 0.13
RRRVRAILPYTKVPDTDEISFLWGDMFIVHNELEDGWMWVTNLRTDEQGLIVEDLVEEVGR [K23W]	-0.482 ± 0.037
RRRVRAILPYTKVPDTDEISFLKGDMFIVHNELEDGWLWVTNLRTDEQGLIVEDLVEEVGR [M38L]	-0.013 ± 0.031
RRRVRAILPYTKVPDTDEISFLKGDMFIVHNELEDGWSWVTNLRTDEQGLIVEDLVEEVGR [M38S]	-0.451 ± 0.029
RPRVRAILPYTKVPDTDEISFLKGDMFIVHNELEDGWMWVTNLRTDEQGLIVEDLVEEVGR [R2P]	-0.189 ± 0.044
RSRVRAILPYTKVPDTDEISFLKGDMFIVHNELEDGWMWVTNLRTDEQGLIVEDLVEEVGR [R2S]	-0.164 ± 0.024
RHRVRAILPYTKVPDTDEISFLKGDMFIVHNELEDGWMWVTNLRTDEQGLIVEDLVEEVGR [R2H]	-0.183 ± 0.038
RRRVRAILPYTKVPDTDEISFLKGDMFIVHNELEDGWMWVTNLRTDEQALIVEDLVEEVGR [G49A]	-0.926 ± 0.065
RRRVRAILPYTKVPDTDEISFLKGDMFIVHNELEDGWMWVTNLRTDEQCLIVEDLVEEVGR [G49C]	-0.784 ± 0.039
